Measured values reported in doi:10.1101/2024.08.21.608941.

Assays:
[1] = target: M. tuberculosis Eσ^B holoenzyme (M. tuberculosis) (UniProt P9WGZ1); assay: cryo-EM particle classification
[2] = target: M. tuberculosis Eσ^B holoenzyme (M. tuberculosis) (UniProt P9WGZ1); assay: negative-stain electron microscopy
[3] = target: RNAP core deltaFT;sigB Cys151/292 (DY547P1/DY647P1 labelled) (Mycobacterium …, UniProt P9WGZ1;P9WGY9;P9WGY7;P9WGY5;P9WGI5 1-347;1-810+826-1178;1-1316;1-110;1-323, internal_change|T151C;G292C); assay: smFRET
[4] = target: RNAP core deltaFT;sigB Cys151/292 (DY547P1/DY647P1 labelled);RbpA (Mycobacterium …, UniProt P9WGZ1;P9WGY9;P9WGY7;P9WGY5;P9WGI5;P9WHJ5 …, internal_change|T151C;G292C|); assay: smFRET

Molecule “M. tuberculosis Eσ^B holoenzyme (from UniProt P9WGZ1;P9WGY9;P9WGY7;P9WGY5;P9WGI5) (complex)” has a stoichiometry N [1] of 2 and a stoichiometry N [2] of 8.

TGCGTATAATGTGTGGA (ssDNA) [-10 ssDNA (unlabelled)]: binds [3]; binds [4].
